Data: the nanobody polyreactivity screen of Harvey et al. (2022)

Test: yeast display, Sf9 membrane polyspecificity reagent, FACS + sequencing; frameworks hold sequencing errors
In short: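 Using colony PCR, genes from sorted yeast display clones were amplified, then sequenced on MiSeq at 2 × 250 and filtered by CDR length. The clones had been stained with 10% biotinylated, detergent-solubilized Sf9 membrane reagent for 1 hour at 4 °C and sorted by FACS into low and high (top ~1%) gates on anti-HA and streptavidin fluorescence. Polyreactivity labels come from the gate of origin.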

QVQLVESGGGLVQAGGSLRLSCAASGSIFKKYAMGWYRQAPGKERELVAAISSTGGSTKYADSVKGRFTISRDNAKNTVYLQMNSLKPEDTAVYYCAVRYKWPYDYWGQGTQVTVSS
polyreactivity (PSR sort gate): high polyreactivity

QVQLVESGGGLVQAGVSLRLSCAASGRIFGTNAMGWYRQAPGKERELVADITSGGSTNYADSVKGRFTISRDTAKNTVYLQMNSLKPEDTALYYCAADVIGDMRWYRDEYRGQGTQVTVSS
polyreactivity (PSR sort gate): low polyreactivity

QVQLVESGGGLVQAGGSLRLSCAAYGSIFSFYVMGWNRQAPGKERELVARINWSSTSTYYADSVKGRFTISRDNAKNTVYLQMNSLKPEDTAVYYCAAGRRVYPGYYYWGQGTQVTVSS
polyreactivity (PSR sort gate): high polyreactivity

QVQLVESGGGLVQAGRSLRLSCAASGSTFSSYGMGWYRQAPGKDRELDASITIRGGSTYYADSVKGRFTISRDNAKTTVCIQMNSLKPEDTAVYYCAADVTNRGTWVIYGYYYWGQGTQVTVSS
polyreactivity (PSR sort gate): low polyreactivity

QVQLVESGGGLVQAGGSQRLSCAASGSIFLRYAMGWYRQAPGKERELVAAITSSGGSTYYADSVKGRFTISRDNAKNTVYLQMTSLKPEDTAVYYCNRYSYLFPYYWKYDYWGQGTQVTVSS
polyreactivity (PSR sort gate): high polyreactivity

QVQLVESGGGLVQAGGSLRLSCAASGFIFNDYAMGWYRQAPGKERELVAAISRSGGSTYYADSVKGRFTISRDNAKNTVYLQMNSLKAEDTAVYYCAADGLSGYRYYYWGQGTQVTVSS
polyreactivity (PSR sort gate): high polyreactivity

QVQLVESGRGLVQAGGSLRLSCAASGSTFGGYAMGWNRPAPGKERELVAAISIEGGSTYYAESVKGRFTISRDNAKNTVYLQMNSLKPEDTAVYYCNADEYYYGYNYWGQATQVTVSS
polyreactivity (PSR sort gate): low polyreactivity

QVQLVESGGGLVQAGGSLRLSCAASGFTFAPYVMGWYRQAPGKETELVAAIPTRGGSTYYADSVKGRFTISRDNAKNTVYLQMNSLKPEDTAVYYFAAQRRYDTADHGYWGQGTQVTVSS
polyreactivity (PSR sort gate): high polyreactivity

QVQLVESGGGLVQAGGSLRLSCAASGSIFYQYAMGWYRQAPGKERELVARITWSSGSTYYADSVKGRFTISRDNAKNTVYLQMNSLKPEDTAVYYCNVVYTGTSYIYYYWGQGTQVTVSS
polyreactivity (PSR sort gate): high polyreactivity

QVQLVESGGGLVQAGGSLRLSCAASGFNFEVNAMGWYRQAPGKERELVAAITTDGSTNYADSVNGRFSSSRDNAKNTVYIQMTSLKPEDTAVYYCAARVQHYLGTDDYWGQGTQVTVSS
polyreactivity (PSR sort gate): low polyreactivity

QVHLVESGGGLVQAGGSLRLSCAASGFTFVRYAMGWYRQAPGKERELVASISYSGGSTYYADSVKGRFTISRDNAKNTVYVQMNSLKPEATAVYYCAAVIYRGYYYWGQGTQVTVSS
polyreactivity (PSR sort gate): high polyreactivity

QVQLVETGGLLVQAGGSLRLTCAGSGLIFYYYAMGCYRQAPGKERELVATISWYGGSTYADSVKGRFTISRDNAKNTVYLQMNSLKPEDPAVYYCAARYFVYYLEVDYWGQGTQVTVSS
polyreactivity (PSR sort gate): low polyreactivity

QDQLVESRGVLVQAGGSLRLSCAAYGRIISPYAMGWYRQAPGKERELVAAISRRGTRTNYADSVKGRFTLSRDKAKNTVYLQMNSLKPVDTAVYYCNKTPLLRWGQGTQVSVSS
polyreactivity (PSR sort gate): high polyreactivity

QVQLVESGGGLVQAGGSLRLICAGSGSTFPTYAMGWYRQAPGKERELVAAITSGSGTNTYYADSVKGRFTISRDNAKNTVYLQMNSLKPEDTAVYYCAASGGKNGMNYWGQGTQVTVSS
polyreactivity (PSR sort gate): high polyreactivity

QVQLVESGGCLVEAGGSLRLSCAASGRIFVHKAMGWYRQAPGKEREFVAAISLRGGSTYYADSVKGRFTISRDNAKNTVYLQMNFLKPEVTAVYYCAAVPAHFYGYDYWGQGTQVTVSS
polyreactivity (PSR sort gate): low polyreactivity

QVQLVESGGGLVQAGGSLRLSCAASGRTFRWYAMGWYRQAPGKERELVAAISGSGDRTYYADSVKGRFTISRDNAKNTVYLQMNSLKPEDTAVYYCNKAYLLYYTYARGDYWGQGTQVTVSS
polyreactivity (PSR sort gate): high polyreactivity

QVQLVESGGSLVQAGGSLRLSCAASGRTFGYNGMGWYRQAPGKERELVAAITNDGGNTNYADSVKGRFTISRDNAKNTVYLQMNSLKPEDTAVYYCNADRTQDRNPYTYATFDYWGQGTQVTVSS
polyreactivity (PSR sort gate): low polyreactivity

QVQLVESGGGLVQAGGSLRVSCAASGRTFGIYAMGWYRQAPGKEREFVAAISWSGTSTHYADSVKGRFTISRDNAKNTFYLQMNSLKPEDTAVYYCATRRSHYGKYDYWGQGTQVTVSS
polyreactivity (PSR sort gate): high polyreactivity

QVQLVESGGGLVQAGGSLRLSSAASGSIFYDYAMGWYRQAPGKERELVAAITNDDSSTYYADSVKGRFTISRDNAKNTVYLQMNSLKPEDTAVYYCRFKYAVAHHFWVYRYDYWGQGTQVTVSS
polyreactivity (PSR sort gate): low polyreactivity

QVQLVESGGGLVQAGGSLRLTCAASASIFGSAMGWSRQAPGNEMELVASTTDADSVKGRFTISRDNAKNTVYLQMNSLKPEDTSVYYCAADDWDTVEMEYWGQVTQVTVSS
polyreactivity (PSR sort gate): low polyreactivity

QVQIVESGGGLVQAGGSLRLSCAASGSIFSDYVMGWYRQAPRKERELVATISRGGGSTFYADSVKGRFTISRDYAKITVYLQMNSLKPEDTAVYYCAAPPGPSGAKYDYWGQGTQVSVSS
polyreactivity (PSR sort gate): low polyreactivity

QVQLEESGGGFVQAGGCLRLSCAASGRIFYGYAMGWYRQAPGKERELVAAITRSSSTYYADSVKGRFTISRDNAKNTVYLQMNSQKPEDTAVYYCAAVMYATRPVYGFESWGLGTQVTVSS
polyreactivity (PSR sort gate): high polyreactivity

QVQLVESGGGLVQAGGSLRLSCAASGSIITRNAMGWYRQAPGKERELVATIRYRGGSTYYADSVKGRFTISRDNAKNTVFLQMNSLKPEDTAVYYCAARRSHPPDPRFRYGYWGQGTQVTVSS
polyreactivity (PSR sort gate): high polyreactivity

QVQLVESGGGLVQAGGSLSLTWAASGSTFSYYVMGWYRQAPGKETELVAGITRGGRTYYADSENGRFTISRDNAKNSVFLQMNSLKPEDTAVYYCAKDQGGVLELDYWGQGTQVTVSS
polyreactivity (PSR sort gate): low polyreactivity

QFQLVESGGGLVQAGGSLRLSCAASGRTFYQYTMGWYRQAPGKERELVAAITTSTGNTYYADSVKGRFTISRDNAKNTVYLQLNSLKPEDTAVYYCAAEPPTYKLLDYWGQGTQVTVSS
polyreactivity (PSR sort gate): low polyreactivity

QVQLVESGGGLDQAGGSLRLSCAASGITFDFNDLGWYRQAPGKERELVACINGNSDSTYYADSVKGRFTISRDIAKNTVFLQMNSLKPEDTAVYYCNVPTVRYRYDSWGQGTQVTVSS
polyreactivity (PSR sort gate): low polyreactivity

QVQLVESGGGLVQAGGSLRLSCAASGRIFPWYTMGWYRQAPGKERELVAAITSGGNTDYADSVKGRFTISRDNAKNSVYLQMNSLKPEETAVYYCAAGGYPGTTYYGYDYWGQGTQVTVSS
polyreactivity (PSR sort gate): low polyreactivity

QEQLQESGGGLVQAGDSPRLSCAESGYITARTGMGSYRQAPGKEREFVAGIASGTRTHYADSVKGRFTISRDNAKNAVYLQMTSLKPEDTAVYYCAATFGFFYYQYDYWGQGTQVTVSS
polyreactivity (PSR sort gate): low polyreactivity

QVQLQESGGGLVQAGGSLRLSCAARGNIFLGDTMGWYRQAPGKEREFVAGIARGGNPYYADSVKGRFTISRNNAKNTVYLQKNSLKPVDTAVHYCAVQRSHASDYNYWGQGTQVTVSS
polyreactivity (PSR sort gate): low polyreactivity

QVQLVESGGGLVQAGGSLRLSCAASGRTFYAYAMGWYRQAPGKERELVAVITRSGGRTNYADSVKGRFTISRDNAKNTVYLQMNSLKPEDTAVYYCAARADWRQVSFYYWGQGTQVTVSS
polyreactivity (PSR sort gate): high polyreactivity

QVQLVDSGGGLVQAGGSLRLSCAASGRTFRSYAMGWYRQAPGKERELVAAITWNGGGTYYADSVKGRFTMSRDNAKNTVYLQMNSLKPEETAVYYCAGRGRTDSYWRFYHWGQGTQVTVSS
polyreactivity (PSR sort gate): high polyreactivity

QVQLVESGGGLVQAGGSLRLSCTASGSTYVAYAMGLYRQAPGKERELVAAITSSGGRTYYADSVKGRFTISRDNAKNTVYLQMNSLKPEDTAVYYCDAVTHGRYDWGQGTQVTVSS
polyreactivity (PSR sort gate): high polyreactivity
